The text below walks through data of patent publication US20250283063, “NOVEL CRISPR-CAS12I SYSTEMS AND USES THEREOF” (HUIDAGENE THERAPEUTICS (SINGAPORE) PTE. LTD., published 2025).

Substitutions are numbered along the chain they refer to.

One data set concerns the target T1, xCas12i v6.1 (N243R,E336R,V880R).
T1 chain: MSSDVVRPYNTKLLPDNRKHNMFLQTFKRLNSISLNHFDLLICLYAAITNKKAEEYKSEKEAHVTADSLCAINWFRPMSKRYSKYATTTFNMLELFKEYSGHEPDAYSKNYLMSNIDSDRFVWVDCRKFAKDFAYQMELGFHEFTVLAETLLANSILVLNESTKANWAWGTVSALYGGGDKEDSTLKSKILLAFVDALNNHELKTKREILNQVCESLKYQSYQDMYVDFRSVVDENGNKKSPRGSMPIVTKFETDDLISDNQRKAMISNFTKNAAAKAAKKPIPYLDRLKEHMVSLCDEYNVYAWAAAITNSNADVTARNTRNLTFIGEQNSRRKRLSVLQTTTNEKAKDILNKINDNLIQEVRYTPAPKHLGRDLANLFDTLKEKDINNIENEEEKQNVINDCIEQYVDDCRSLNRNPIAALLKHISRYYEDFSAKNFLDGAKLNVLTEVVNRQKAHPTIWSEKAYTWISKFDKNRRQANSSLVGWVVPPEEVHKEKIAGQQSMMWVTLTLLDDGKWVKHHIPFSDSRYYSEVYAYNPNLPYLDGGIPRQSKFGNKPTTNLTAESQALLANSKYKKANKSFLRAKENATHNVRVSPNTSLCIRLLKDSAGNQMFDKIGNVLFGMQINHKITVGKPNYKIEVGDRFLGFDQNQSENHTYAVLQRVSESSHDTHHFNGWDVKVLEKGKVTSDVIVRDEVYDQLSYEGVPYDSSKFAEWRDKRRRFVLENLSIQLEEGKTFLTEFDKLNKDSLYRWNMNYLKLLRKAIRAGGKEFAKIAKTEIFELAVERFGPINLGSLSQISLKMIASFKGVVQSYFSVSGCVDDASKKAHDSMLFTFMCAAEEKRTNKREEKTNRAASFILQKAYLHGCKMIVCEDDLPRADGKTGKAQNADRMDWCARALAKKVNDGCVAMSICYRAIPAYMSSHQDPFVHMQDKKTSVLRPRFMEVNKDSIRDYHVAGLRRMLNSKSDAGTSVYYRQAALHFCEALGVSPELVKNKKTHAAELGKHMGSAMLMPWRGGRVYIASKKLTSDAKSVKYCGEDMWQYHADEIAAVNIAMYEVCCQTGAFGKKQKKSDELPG
Nature of the data set: cell_activity; PAM TTTG; OT-1. To be noted: tags: NLS. Here is the method: (§1) HEK293T cells were cultured in 24-well tissue culture plates according to standard methods for 12 hours, before the reporter and expression plasmids were co-transfected into the cells using standard polyethyleneimine (PEI) transfection. The transfected cells were then cultured at 37° C. under 5% CO₂ for 48 hours. Then the cultured cells were analyzed by flow cytometry for BFP, EGFP, and mCherry fluorescent signals. A “blank” control group was also set up, where only the reporter plasmid was transfected, and no expression plasmid was introduced.
(§2) A dual plasmid fluorescent reporter system for evaluation of off-target dsDNA cleavage activity (off-target reporter system; referring to “Off-Target Reporter” in FIG. 1B) was established, which was similar to the dual plasmid fluorescent reporter system in Example 6 for evaluation of (on-target) dsDNA cleavage activity, except that the insertion sequence of the EGxxxxFP coding sequence contains an TTR off-target protospacer sequence (one of SEQ ID NOs: 127-129) containing one or more mismatches (bold, underlined) with a TTR-targeting spacer sequence (SEQ ID NO: 130) in the gRNA, rather than containing a TTR on-target protospacer sequence (SEQ ID NO: 130; which is the same as SEQ ID NO: 107 in Example 5); DR-T1 sequence (SEQ ID NO: 451) was used. To save drafting, the on-target protospacer sequence/spacer sequence in Table 7 refer to both the protospacer sequence (a DNA sequence) and the corresponding spacer sequence (an RNA sequence) with any “T” in the sequence when referring to a protospacer sequences standing for “T” and when referring to a such spacer sequence standing for “U”, although the assigned SEQ ID NO: 130 in the sequence listing is annotated as DNA.

A further data set has as its target T2, xCas12i v5.3 (N243R,D892R).
T2 chain: T1 chain with R336E, R880V, D892R
Nature of the data set: cell_activity; PAM TTTG; OT-1. Conditions: tags: NLS. The method, then: as §1, §2

B1: TTR.2 crRNA ; TTR OT.1 (ssRNA ; dsDNA)
RNA: AUGACUCAGAAAUGUGUCCCCAGUUGACACUAGAAGGGAUAUACAAAGUGGA
DNA 1: TTTGTAGAAGGGATATAGAAAGTATC
DNA 2: GATACTTTCTATATCCCTTCTACAAA
Regarding B1, the activity was found to be 2.04% with xCas12i v6.1 and 6.66% in the data set with xCas12i v5.3.
